Legend:
[1] = system: bone-marrow derived macrophages (BMDM); test: Dectin-1 expression in bone-marrow derived macrophages; type: cell-based, mouse; conditions: cytokine added to day 8 BMDM cultures for 24h
murine Dectin-1 = biological target: T1, murine Dectin-1 (Mus musculus, UniProt Q6QLQ4); test: Galectin-coated ELISA with murine Dectin-1 IgG Fc; type: binding; conditions: galectin-coated plates; Galectin-3/-4/-9 comparison at 2.5 μg/ml Dectin-1 IgG Fc
T1 construct: purchased InvivoGen fc-mdec1a
T1 sequence (Q6QLQ4 71-244 limits assumed): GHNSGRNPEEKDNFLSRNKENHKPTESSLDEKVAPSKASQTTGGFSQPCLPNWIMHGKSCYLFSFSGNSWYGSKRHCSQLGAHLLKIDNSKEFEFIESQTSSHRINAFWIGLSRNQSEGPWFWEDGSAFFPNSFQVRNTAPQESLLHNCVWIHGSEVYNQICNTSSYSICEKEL
Protocol: (§1) To investigate if Galectin-9 can bind with Dectin-1, Protein G-magnet beads (2 ml; Dynabeads) were loaded with Dectin-1 IgG Fc (1 mg) or control IgG Fc before washing and blocking. Subsequently, beads were incubated with recombinant Galectin-9 ([…]; R&D Systems) for 30 min, washed, and stained with PE-conjugated anti-Galectin-9 (Biolegend, San Diego Calif.). Galectin-9 specific staining was determined by flow cytometry. To investigate the interaction between Galectin-9 and Dectin-1 by ELISA, plates (Maxisorp, Nunc, St. Louis, Mo.) were coated with recombinant mouse Galectin-9 ([…]; R&D Systems, Minneapolis, Minn.), Galectin-3, or Galectin-4 (both […]; Biolegend) for 16 hours at 4° C., blocked with 1% BSA/PBS for 1 hour, and incubated with increasing doses of Dectin-1 IgG Fc or control IgG Fc for 2 hours. The Galectin-bound Dectin-1 IgG Fc was detected with anti-IgG-HRP. For affinity precipitation experiments, protein G-beads were loaded with Dectin-1 IgG Fc and were then incubated with the extract of 6 month old KC pancreata. Bead-bound precipitates were resuspended with loading buffer, resolved by SDS-PAGE under reduced conditions for western blotting using mAbs specific for Galectin-9. To determine whether Galectin-9 induces Dectin-1 signaling, the Dectin-1 reporter HEK293 cell line^16 (Invivogen) was treated with recombinant Galectin-9 (1-10 μg/ml; R&D Systems), d-Zymosan (1-10 μg/ml), or Curdlan (10-100 μg/ml; both Invivogen). Dectin-1 signaling was measured by detection of secreted embryonic alkaline phosphatase. In other experiments, WT and Dectin-1^−/− splenic macrophages were treated in vitro with recombinant Galectin-9 (10 ug/ml). Syk phosphorylation was measured by flow cytometry at 3 hours.
(§2) Non-pathogen derived Dectin-1 ligands have not been well-characterized. […] Bead-IgG Fc complexes were incubated with recombinant Galectin-9 and then labeled with a fluorescently-conjugated αGalectin-9 mAb and tested for fluorescence by flow cytometry. […]

Dectin-1 IgG Fc = biological target: T2, Dectin-1 IgG Fc (Mus musculus, UniProt Q6QLQ4); test: Protein G bead / flow cytometry Galectin-9-Dectin-1 binding; conditions: recombinant Galectin-9, flow cytometry
T2 construct: purchased InvivoGen fc-mdec1a
T2 sequence (Q6QLQ4 71-244 limits assumed): T1 sequence (Q6QLQ4 71-244 limits assumed)
Protocol: (§3) To investigate if Galectin-9 can bind with Dectin-1, Protein G-magnet beads (2 ml; Dynabeads) were loaded with Dectin-1 IgG Fc (1 mg) or control IgG Fc before washing and blocking. Subsequently, beads were incubated with recombinant Galectin-9 ([…]; R&D Systems) for 30 min, washed, and stained with PE-conjugated anti-Galectin-9 (Biolegend, San Diego Calif.). Galectin-9 specific staining was determined by flow cytometry. To investigate the interaction between Galectin-9 and Dectin-1 by ELISA, plates (Maxisorp, Nunc, St. Louis, Mo.) were coated with recombinant mouse Galectin-9 ([…]; R&D Systems, Minneapolis, Minn.), Galectin-3, or Galectin-4 (both […]; Biolegend) for 16 hours at 4° C., blocked with 1% BSA/PBS for 1 hour, and incubated with increasing doses of Dectin-1 IgG Fc or control IgG Fc for 2 hours. The Galectin-bound Dectin-1 IgG Fc was detected with anti-IgG-HRP. […] Dectin-1 signaling was measured by detection of secreted embryonic alkaline phosphatase. […] Syk phosphorylation was measured by flow cytometry at 3 hours.
as §2

human Dectin-1 = test: Galectin-9-coated ELISA with human Dectin-1 IgG Fc; type: binding; conditions: Galectin-9 coated plates, increasing doses
Chain of human Dectin-1 (Q9BXN2 114-247 limits assumed): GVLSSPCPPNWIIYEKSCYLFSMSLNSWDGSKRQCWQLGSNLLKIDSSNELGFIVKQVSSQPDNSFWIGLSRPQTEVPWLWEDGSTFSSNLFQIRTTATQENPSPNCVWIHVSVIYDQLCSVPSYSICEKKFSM
Protocol: as §3, §2

Dectin-1 [2] = test: Syk phosphorylation in WT and Dectin-1-/- macrophages; type: cell-based, mouse; conditions: 10 ug/ml for 3 hours, WT vs Dectin-1-/- macrophages, flow cytometry
Protocol: as §1, with “To determine whether Galectin-9 induces Dectin-1 signaling, the Dectin-1 reporter HEK293 cell line^16 (Invivogen) was treated with recombinant Galectin-9 (1-10 μg/ml; R&D Systems), d-Zymosan (1-10 μg/ml), or Curdlan (10-100 μg/ml; both Invivogen).” left out, “In other experiments, WT and Dectin-1^−/− splenic macrophages were treated in vitro with recombinant Galectin-9 (10 ug/ml).” left out

Dectin-1 [3] = test: Dectin-1 reporter HEK293 cell line (secreted embryonic alkaline phosphatase); type: cell-based; conditions: low and high doses (1-10 μg/ml)
Protocol: as §1, with “To determine whether Galectin-9 induces Dectin-1 signaling, the Dectin-1 reporter HEK293 cell line^16 (Invivogen) was treated with recombinant Galectin-9 (1-10 μg/ml; R&D Systems), d-Zymosan (1-10 μg/ml), or Curdlan (10-100 μg/ml; both Invivogen).” left out, “In other experiments, WT and Dectin-1^−/− splenic macrophages were treated in vitro with recombinant Galectin-9 (10 ug/ml).” left out

B1: IL-12: cytokine added to BMDM cultures (protein, UniProt P43431 23-215; P43432 23-335, looked up)
Interleukin-12 subunit alpha: RVIPVSGPARCLSQSRNLLKTTDDMVKTAREKLKHYSCTAEDIDHEDITRDQTSTLKTCLPLELHKNESCLATRETSSTTRGSCLPPQKTSLMMTLCLGSIYEDLKMYQTEFQAINAALQNHNHQQIILDKGMLVAIDELMQSLNHNGETLRQKPPVGEADPYRVKMKLCILLHAFSTRVVTINRVMGYLSSA
Interleukin-12 subunit beta: MWELEKDVYVVEVDWTPDAPGETVNLTCDTPEEDDITWTSDQRHGVIGSGKTLTITVKEFLDAGQYTCHKGGETLSHSHLLLHKKENGIWSTEILKNFKNKTFLKCEAPNYSGRFTCSWLVQRNMDLKFNIKSSSSSPDSRAVTCGMASLSAEKVTLDQRDYEKYSVSCQEDVTCPTAEETLPIELALEARQQNKYENYSTSFFIRDIIKPDPPKNLQMKPLKNSQVEVSWEYPDSWSTPHSYFSLKFFVRIQRKKEKMKETEEGCNQKGAFLVEKTSTEVQCKGGNVCVQAQDRYYNSSCSKWACVPCRVRS
In the case of B1, the “Dectin-1 expression in BMDM” value [1] is reported as “did not influence Dectin-1 expression”.

B2: Galectin-9: recombinant Galectin-9 (R&D Systems), lectin identified as Dectin-1 ligand (protein)
chain: MALFSAQSPYINPIIPFTGPIQGGLQEGLQVTLQGTTKSFAQRFVVNFQNSFNGNDIAFHFNPRFEEGGYVVCNTKQNGQWGPEERKMQMPFQKGMPEFELCFLVQRSEFKVMVNKKFVQYQHRVPYHLVDTIAVSGCLKLSFITFQNSAAPVQHVFSTVQFSQPVQFPRTPKGRKQKTQNFRPAHQAPMAQTTIHMVHSTPGQMFSTPGIPPVVYPTPAYTIPFYTPIPNGLYPSKSIMISGNVLPDATRFHINLRCGGDIAFHLNPRFNENAVVRNTQINNSWGQEERSLLGRMPFSRGQSFSVWIICEGHCFKVAVNGQHMCEYYHRLKNLQDINTLEVAGDIQLTHVQT
With B2 the “binding of murine Dectin-1 IgG Fc on ELISA” value (murine Dectin-1) was “dose-dependent manner”, the “binding to bead-bound Dectin-1 IgG Fc” value (Dectin-1 IgG Fc) was “avidly ligated” and the “binding of human Dectin-1 IgG Fc on ELISA” value (human Dectin-1) was “dose-dependent manner”. For the same molecule, the Syk phosphorylation (Dectin-1 [2]) was “activated Syk in a Dectin-1-dependent manner” and the “Dectin-1 activation (NF-κB signaling) in reporter cells” value (Dectin-1 [3]) was “induced NF-κB signaling”.

B3: Galectin-3: recombinant Galectin-3 (Biolegend) coated on ELISA plates (protein, UniProt P16110 2-264, looked up)
Galectin-3: ADSFSLNDALAGSGNPNPQGYPGAWGNQPGAGGYPGAAYPGAYPGQAPPGAYPGQAPPGAYPGQAPPSAYPGPTAPGAYPGPTAPGAYPGQPAPGAFPGQPGAPGAYPQCSGGYPAAGPYGVPAGPLTVPYDLPLPGGVMPRMLITIMGTVKPNANRIVLDFRRGNDVAFHFNPRFNENNRRVIVCNTKQDNNWGKEERQSAFPFESGKPFKIQVLVEADHFKVAVNDAHLLQYNHRMKNLREISQLGISGDITLTSANHAMI
For B3, the “binding of murine Dectin-1 IgG Fc on ELISA” value (murine Dectin-1) was “did not avidly bind”.

B4: Galectin-4: recombinant Galectin-4 (Biolegend) coated on ELISA plates (protein, UniProt Q8K419 1-326, looked up)
Galectin-4: MAYVPAPGYQPTYNPTLPYKRPIPGGLSVGMSVYIQGMAKENMRRFHVNFAVGQDDGADVAFHFNPRFDGWDKVVFNTMQSGQWGKEEKKKSMPFQKGKHFELVFMVMPEHYKVVVNGNSFYEYGHRLPVQMVTHLQVDGDLELQSINFLGGQPAAAPYPGAMTIPAYPAGSPGYNPPQMNTLPVMTGPPVFNPRVPYVGALQGGLTVRRTIIIKGYVLPTARNFVINFKVGSSGDIALHLNPRIGDSVVRNSFMNGSWGAEERKVAYNPFGPGQFFDLSIRCGMDRFKVFANGQHLFDFSHRFQAFQMVDTLEINGDITLSYVQI
B4 was tested, and the “binding of murine Dectin-1 IgG Fc on ELISA” value (murine Dectin-1) was “did not avidly bind”.

Reference: patent US20180044422A1, “TREATING SOLID TUMOR BY TARGETING DECTIN-1 SIGNALING” (New York University, priority 2016, published 2018)
